From patent US20170189510A1 come the findings set out here.

The target of the experiment is HLA-A*24 (human). The experiment is described as follows: UV-ligand exchange, anti-b2m ELISA.

With YFIDSTNLKTHF [peptide SEQ ID No 269 …], the peptide exchange yield lay in the range of 50 to 75%.

TYKDEGNDYF [peptide SEQ ID No 209 …] came in with a peptide exchange yield of 50 to 75%.

Molecule IYATEAHVF [peptide SEQ ID No 201 …] displayed a peptide exchange yield of 50 to 75%.

TFSVSSHLF [peptide SEQ ID No 222 …]: the peptide exchange yield was in the range of 50 to 75%.

Molecule PYRLIFEKF [peptide SEQ ID No 281 …] came in with a peptide exchange yield of 20 to 49%.

As for HYPPVQVLF [peptide SEQ ID No 285 …], the peptide exchange yield was in the range of 50 to 75%.

AYVVFVSTL [peptide SEQ ID No 207 …] displayed a peptide exchange yield of 20 to 49%.

On to LYITEPKTI [peptide SEQ ID No 287 …], for which the peptide exchange yield lay in the range of 50 to 75%.

Consider VYWDSAGAAHF [peptide SEQ ID No 202 …], for which the peptide exchange yield was over 75%.

Molecule QYLGQIQHI [peptide SEQ ID No 268 …] came in with a peptide exchange yield of 50 to 75%.

The molecule VYQGHTALL [peptide SEQ ID No 277 …] returned a peptide exchange yield of over 75%.

Turning to YYKSTSSAF [peptide SEQ ID No 218 …], the peptide exchange yield lay in the range of 50 to 75%.

In the case of YYGPSLFLL [peptide SEQ ID No 200 …], the peptide exchange yield was 50 to 75%.

TYELRYFQI [peptide SEQ ID No 204 …]: the peptide exchange yield was over 75%.

The molecule NYYEVHKELF [peptide SEQ ID No 270 …] registered a peptide exchange yield of 50 to 75%.
